The target of this experiment is human CaV2.1 (P/Q-type) voltage-gated calcium channel (human).

“human G-protein Gβ1γ2 heterodimer (from UniProt P62873-1 1-340; P59768 1-71) (complex)”: the τ activation of hCaV2.1 macroscopic current with co-expressed human Gβ1γ2, after a +150 mV prepulse came out at 3.26 ms and the τ activation of hCaV2.1 macroscopic current with co-expressed human Gβ1γ2, without prepulse (1.16-1.20 ms without G proteins) was 10.6 ms.

The values are drawn from article PMC7939481.
